Assay results published in US11110115B2, “Nucleic acid molecule with anti-inflammatory and anti-coagulant and organ-protective properties” (APTAHEM AB, priority 2017, dated 2021).
Entries after “also recorded” stand apart in the source; their conditions may differ.

How the values were obtained:
[1] = Activated partial thromboplastin time (APTT) in arteriovenous shunt model; assay type: in vivo, Sprague-Dawley male rats; conditions: SEQ ID NO:2 33.3 mg/kg i.v. 5 min prior; Rivaroxaban 10 mg/kg p.o. 90 min prior
[2] = Ferric chloride induced arterial thrombosis model (clot weight and size); assay type: in vivo, Sprague-Dawley rats; conditions: 60 min after FeCl3; SEQ ID NO:2 5, 20, 40 mg/kg i.v.; Rivaroxaban 10 mg/kg oral; Warfarin 0.5 mg/kg i.v.
Procedure: Animal handling was performed according to guidelines of the National Institute of Health (NIH) and the Association for Assessment and Accreditation of Laboratory Animal Care (AAALAC). A total of 36 Sprague-Dawley rats (Envigo RMS) were divided into six groups comprising of 6 animals per group (3 males and 3 females). […] Both were fed ad libitum a rodent diet. Animals had free access to autoclaved and acidified drinking water. Animals were housed under standard laboratory conditions, air conditioned and filtered with adequate fresh air supply. Animals were kept in a climate controlled environment.
SEQ ID NO:2 (Biospring) (100 mg) was dissolved in 5 ml saline to form a stock solution of 20 mg/ml. Vehicle (saline, Teva) as ready to use for i.v. administration. Rivaroxaban (Bayer, Pharamseed Ltd) dosing solution was diluted at 10 mg/kg (Group 2M). Warfarin (Ceriliant, Pharmaseed Ltd) was diluted at 0.5 mg/kg (Group 3M). […]
Male and Female rats were anaesthetized by intraperitoneal injection of ketamine/xylazine. […] The time needed for occlusion to occur was measured for up to 60 min, and occlusion time was assigned a value of 60 min for vessels that […].
Clot formation was followed for 60 minutes following application of FeCl3. […] The artery wall was cut longitudinally; clot was taken out, weighed and measured by caliper. […]

[3] = Expanded toxicology panel of serum in LPS-induced shock; assay type: in vivo, C57BL/6 mice; conditions: blood at Hour 28
Procedure: In this study, female C57BL/6 mice of 10-12 weeks old (Taconic Biosciences) were used. Animals had free access to autoclaved and acidified drinking water. Animals were housed under standard laboratory conditions, air conditioned and filtered with adequate fresh air supply. Animals were kept in a climate-controlled environment. Lipopolysaccharide (LPS) from E. coli (O111:B4) was diluted in PBS. SEQ ID NO:2 was stored in powder form at 4° C. until use. Powder was added to saline and vortexed into solution to prepare SEQ ID NO:2 stock solution. […] For all other groups, LPS was injected intraperitoneally at 10 mg/kg. Mice were intravenously injected 15 minutes and 60 minutes after LPS administration with SEQ ID NO:2 at concentrations of 10, 25, 50 and 100 mg/kg. […] Blood collected at Hour 28 was analyzed for expanded toxicology panel performed by IDEXX Laboratories, Inc. (N. Grafton, Mass.). We attempted to collect enough blood to run each analysis 5 times for each group. The extended toxicology analysis measured concentrations of AST, ALT, creatine kinase, albumin, total protein, BUN, cholesterol, glucose, phosphorus, triglycerides, HDL cholesterol, bile acid, LDL cholesterol, total bilirubin, GGT, bilirubin conjugated, and creatinine. Here, results are shown for AST, ALT, creatine kinase, albumin, total protein, BUN, cholesterol, phosphorus, triglycerides, cholesterol, and creatinine.

[4] = 50 mg/kg at 15 and 60 min after LPS
[5] = 50 mg/kg at 60 and 120 min after LPS
[6] = groups treated i.v. with SEQ ID NO:2 after LPS
[7] = overall, groups treated i.v. with SEQ ID NO:2

B1: SEQ ID NO:2: nucleic acid sequence of SEQ ID NO:1 in which each C and U is fluorinated to increase stability in plasma (nucleic acid)
chain: GGGAAUUCGAGCUCGGUACCAACAAUACGACUACACCAUCAAAAGUAUUAUCUUGCAUCGAAGGUUGGCACGUAGCAAGCUCUGCAGUCG
modifications: fluorinated C and U; (6)..(7) uracil is fluorinated; (8)..(8) cytosine is fluorinated; (12)..(12) cytosine is fluorinated; (13)..(13) uracil is fluorinated; (14)..(14) cytosine is fluorinated; (17)..(17) uracil is fluorinated; (19)..(20) cytosine is fluorinated; (23)..(23) cytosine is fluorinated; (26)..(26) uracil is fluorinated; (28)..(28) cytosine is fluorinated; (31)..(31) cytosine is fluorinated; (32)
- Activated Partial Thromboplastin Time (APTT) compared to vehicle group [1]: significant increase
- clot size compared to control group (Vehicle) [2]: reduction
- clot weight compared to control group (Vehicle) [2]: reduction
- Cholesterol in serum ([3]; 25 mg/kg at 15 and 60 min after LPS): significant improvements
- Cholesterol in serum [3, 4]: significant improvements
- Creatinine in serum [3, 4]: significant improvements
- Creatinine in serum [3, 5]: significant improvements
- Triglycerides in serum [3, 5]: significant improvements
- serum concentration of ALT compared to vehicle treated group [3, 6]: did not reach statistical significance
- serum concentration of AST compared to vehicle treated group [3, 6]: improvements; also recorded: significantly improved
- serum concentration of BUN compared to vehicle treated group [3, 6]: improvements; also recorded: significantly improved
- serum concentration of creatine kinase compared to vehicle treated group [3, 6]: did not reach statistical significance
- serum concentration of phosphorus compared to vehicle treated group [3, 6]: improvements; also recorded: significantly improved
- serum concentration of cholesterol compared to vehicle treated group [3, 7]: significantly improved
- serum concentration of creatinine compared to vehicle treated group [3, 7]: significantly improved
- serum concentration of triglycerides compared to vehicle treated group [3, 7]: significantly improved
